According to patent US11912794B2, “Modulation of structured polypeptide specificity” (BicycleRD Limited, priority 2011, dated 2024):

target: biotinylated human plasma Kallikrein (Homo sapiens, UniProt P03952); assay: Phage binding assay of individual clones, randomisation of peptide domains; details: WPAR domain fixed, positions 1, 6, 7, 8, 9 & 10 randomised; top 50
From the text: Library construction: Small phage libraries were generated according to the methods of Heinis et al as described in ‘Cloning of phage libraries’ above. The sficx3ba primer was modified such that the bicycle-encoding portion was based on a parent 5×5 bicycle (5×5: two 5-residue loops) DNA sequence with only 4-6 codons randomized to NNS. The randomized codons were those encoding the peptide domain/motif of interest.
Assay of binding of individual clones: Library transformant colonies, or selection output colonies, were picked and grown as individual cultures in 2TY broth containing selective antibiotic. The picked colonies were DNA-sequenced using a QIAgen PyroMark Q96 DNA sequencer to reveal the amino-acid substitution present in each clone, and were assayed for human plasma Kallikrein binding as follows. The phage-containing supernatant was harvested from the culture and phage were cyclised with tris bromomethyl benzene(TBMB) based on the methods of Heinis et al (Nature Chemical Biology vol. 5 pp 502-507 (2009)). The purified phage from this process were assayed for binding to biotinylated human plasma Kallikrein using a homogeneous plate-based binding assay; assay read-out measured on a BMG Labtech Pherastar FS plate reader. The quantitative binding data from duplicate assay samples was averaged (mean) and expressed as signal:background. Assay data shown is representative of at least 2 independent experiments. The assay data was correlated with the peptide sequences.
The WPAR (SEQ ID NO: 18) motif identified from Example 1 was analysed in the context of the 06-34-03 peptide, in order to identify alternatives or improvements to the WPAR (SEQ ID NO: 18) motif. A library was constructed where positions 1, 6, 7, 8, 9 &10 of 06-34-03 were fixed and positions 2, 3, 4 & 5 were randomised (see ‘Randomisation of peptide domains—Library construction’ in Methods above). Selections against human plasma Kallikrein were performed at a variety of stringencies (see Phage selections' in Methods above). All output sequences were identified and analysed for target binding (see ‘Randomisation of peptide domains—Assay of binding of individual clones’ in Methods above). Table 17 lists each unique sequence, its relative abundance in the selection output (frequency), and a rank number according to target binding strength.
Selections against human plasma Kallikrein were performed with this library in order to study the non-WPAR (SEQ ID NO: 18) determinants of Kallikrein binding, and to isolate the optimal WPAR (SEQ ID NO: 18)-containing peptide sequence. Over 150 selection output sequences were isolated and screened for binding to human plasma Kallikrein (as described in Methods above). The sequences were ranked in order of Kallikrein binding and the top 50 sequences were aligned in Table 19. […]

Chain of biotinylated human plasma Kallikrein (P03952 20-638): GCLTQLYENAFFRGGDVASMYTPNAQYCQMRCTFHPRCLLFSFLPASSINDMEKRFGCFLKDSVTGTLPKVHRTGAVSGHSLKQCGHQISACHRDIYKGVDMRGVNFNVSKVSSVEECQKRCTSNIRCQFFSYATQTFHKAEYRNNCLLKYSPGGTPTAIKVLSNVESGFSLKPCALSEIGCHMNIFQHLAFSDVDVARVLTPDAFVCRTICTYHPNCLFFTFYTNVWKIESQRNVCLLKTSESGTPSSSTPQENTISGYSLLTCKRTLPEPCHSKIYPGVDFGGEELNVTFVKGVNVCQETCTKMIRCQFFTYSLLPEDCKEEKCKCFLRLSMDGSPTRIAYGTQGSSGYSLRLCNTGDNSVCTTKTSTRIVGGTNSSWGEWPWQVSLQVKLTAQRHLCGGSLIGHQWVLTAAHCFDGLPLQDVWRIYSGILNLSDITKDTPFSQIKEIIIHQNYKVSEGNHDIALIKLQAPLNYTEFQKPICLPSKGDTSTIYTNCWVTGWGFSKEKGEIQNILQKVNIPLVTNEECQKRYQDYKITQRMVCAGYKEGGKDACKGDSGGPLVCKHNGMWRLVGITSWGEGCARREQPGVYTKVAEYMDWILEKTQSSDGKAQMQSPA

Rank (sequences ranked according to Kallikrein binding)	Substance
26	SEQ ID NO: 139 (CTWPARCTHADLC; Synthetic sequence Kallikrein binder containing a WPAR motif)
23	SEQ ID NO: 136 (CTWPARCLHQDLC; Synthetic sequence Kallikrein binder containing a WPAR motif)
11	SEQ ID NO: 124 (CHWPARCTHQELC; Synthetic sequence Kallikrein binder containing a WPAR motif)
49	SEQ ID NO: 162 (CSWPARCLHDDLC; Synthetic sequence Kallikrein binder containing a WPAR motif)
24	SEQ ID NO: 137 (CSWPARCTHSHLC; Synthetic sequence Kallikrein binder containing a WPAR motif)
25	SEQ ID NO: 138 (CVWPARCTHQDLC; Synthetic sequence Kallikrein binder containing a WPAR motif)
36	SEQ ID NO: 149 (CAWPARCTHTHLC; Synthetic sequence Kallikrein binder containing a WPAR motif)
19	SEQ ID NO: 132 (CQWPARCTHSDLC; Synthetic sequence Kallikrein binder containing a WPAR motif)
30	SEQ ID NO: 143 (CPWPARCTHQNLC; Synthetic sequence Kallikrein binder containing a WPAR motif)
28	SEQ ID NO: 141 (CPWPARCTHTDLC; Synthetic sequence Kallikrein binder containing a WPAR motif)
5	SEQ ID NO: 118 (CSWPARCTHADLC; Synthetic sequence Kallikrein binder containing a WPAR motif)
43	SEQ ID NO: 156 (CEWPARCLHTDLC; Synthetic sequence Kallikrein binder containing a WPAR motif)
6	SEQ ID NO: 119 (CSWPARCTHDDLC; Synthetic sequence Kallikrein binder containing a WPAR motif)
34	SEQ ID NO: 147 (CSWPARCIHQDLC; Synthetic sequence Kallikrein binder containing a WPAR motif)
4	SEQ ID NO: 117 (CPWPARCTHQDLC; Synthetic sequence Kallikrein binder containing a WPAR motif)
40	SEQ ID NO: 153 (CAWPARCTHQTMC; Synthetic sequence Kallikrein binder containing a WPAR motif)
10	SEQ ID NO: 123 (CTWPARCTHTDLC; Synthetic sequence Kallikrein binder containing a WPAR motif)
20	SEQ ID NO: 133 (CLWPARCTHADLC; Synthetic sequence Kallikrein binder containing a WPAR motif)
3	SEQ ID NO: 116 (CHWPARCTHQDLC; Synthetic sequence Kallikrein binder containing a WPAR motif)
27	SEQ ID NO: 140 (CHWPARCMHQDLC; Synthetic sequence Kallikrein binder containing a WPAR motif)
15	SEQ ID NO: 128 (CAWPARCTHTDFC; Synthetic sequence Kallikrein binder containing a WPAR motif)
47	SEQ ID NO: 160 (CTWPARCTHQAFC; Synthetic sequence Kallikrein binder containing a WPAR motif)
